Source: publication PMC9595883 (Journal of molecular biology, 2022)

B1: centromere repeat 3 (dsDNA)
DNA 1: ATGTTAGGTGGTAAACTA
DNA 2: TAGTTTACCACCTAACAT
B2: pSK1 Par(78–170) (domain or fragment)
chain: NNSDGFETLKTKVNELEKQVEIFETRAKNDEKYIENLTKQLDQQNSNVNTLNKLLENQQILALESNKKIQKLEHQLEEERQLSYSFDKSTNDR
B3: centromere repeat 6 (dsDNA)
DNA 1: ATGTTAGGTACTTAGCTA
DNA 2: TAGCTAAGTACCTAACAT
B4: palindromic 18-mer (crystallization site), FP (dsDNA)
DNA 1: ATGTTAGGTACCTAACTA
DNA 2: TAGTTAGGTACCTAACAT
B5: centromere repeat 2/5/7 (dsDNA)
DNA 1: ATGTTAGGTAGTAAACTA
DNA 2: TAGTTTACTACCTAACAT
B6: centromere repeat 1 (dsDNA)
DNA 1: ATGTTAGGTGCCTAACTA
DNA 2: TAGTTAGGCACCTAACAT
B7: half site mutant 18-mer (dsDNA)
DNA 1: ATGTTAGGTACCCGACTA
DNA 2: TAGTCGGGTACCTAACAT
B8: centromere repeat 4 (dsDNA)
DNA 1: ATGTTAGGCGGTAAACTA
DNA 2: TAGTTTACCGCCTAACAT
B9: pSK1 Par(1–170) (domain or fragment)
chain: MKTIKMVADELNVTKQTVVNNAKNLNISFEKENGVNYIDDNDYLKIVEKITKKERTTQNKENKKSEITYENTEKNRYNNSDGFETLKTKVNELEKQVEIFETRAKNDEKYIENLTKQLDQQNSNVNTLNKLLENQQILALESNKKIQKLEHQLEEERQLSYSFDKSTNDR

Assays:
[1] = molecular target: T1, Par(1-170) (Staphylococcus aureus plasmid pSK1, UniProt Q9L8I7 1-170); assay: fluorescence polarization
T1 sequence: B9 chain

[2] = molecular target: the molecule itself; assay: SEC

Binder | Kd [1] | stoichiometry N [2]
B1 | 0.0627 ± 0.0013 µM | 
B2 |  | 4
B3 | 0.0902 ± 0.0056 µM | 
B4 | 0.0434 ± 0.0015 µM | 
B5 | 0.0665 ± 0.0049 µM | 
B6 | 0.0675 ± 0.0032 µM | 
B7 | 0.195 ± 0.0108 µM | 
B8 | 0.14 ± 0.01 µM | 
B9 |  | 4
